Assay results from IntAct's records for PubMed 17719540.

B1: Type 3 secretion system translocon protein SctE (Shigella flexneri), P18011 (parent)
chain: MHNVSTTTTGFPLAKILTSTELGDNTIQAANDAANKLFSLTIADLTANQNINTTNAHSTSNILIPELKAPKSLNASSQLTLLIGNLIQILGEKSLTALTNKITAWKSQQQARQQKNLEFSDKINTLLSETEGLTRDYEKQINKLKNADSKIKDLENKINQIQTRLSELDPESPEKKKLSREEIQLTIKKDAAVKDRTLIEQKTLSIHSKLTDKSMQLEKEIDSFSAFSNTASAEQLSTQQKSLTGLASVTQLMATFIQLVGKNNEESLKNDLALFQSLQESRKTEMERKSDEYAAEVRKAEELNRVMGCVGKILGALLTIVSVVAAAFSGGASLALAAVGLALMVTDAIVQAATGNSFMEQALNPIMKAVIEPLIKLLSDAFTKMLEGLGVDSKKAKMIGSILGAIAGALVLVAAVVLVATVGKQAAAKLAENIGKIIGKTLTDLIPKFLKNFSSQLDDLITNAVARLNKFLGAAGDEVISKQIISTHLNQAVLLGESVNSATQAGGSVASAVFQNSASTNLADLTLSKYQVEQLSKYISEAIEKFGQLQEVIADLLASMSNSQANRTDVAKAILQQTTA

Variants of: B1
Settings: with md2l2_human MAD2L2, Q9UI95
md2l2_human MAD2L2, Q9UI95, sequence (Q9UI95 whole entry): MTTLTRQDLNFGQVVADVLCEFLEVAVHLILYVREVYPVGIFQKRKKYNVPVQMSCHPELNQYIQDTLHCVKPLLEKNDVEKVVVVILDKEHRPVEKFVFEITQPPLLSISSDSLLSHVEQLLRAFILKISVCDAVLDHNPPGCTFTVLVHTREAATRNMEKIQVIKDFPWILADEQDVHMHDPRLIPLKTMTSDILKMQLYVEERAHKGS

Variant	effect of a mutation on the interaction
MHNVSTTTTGFPLAKILTSTELGDNTIQAANDAANKLFSLTIADLTANQNINTTNAHSTSAILIPELKAPKSLNASSQLTLLIGNLIQILGEKSLTALTNKITAWKSQQQARQQKNLEFSDKINTLLSETEGLTRDYEKQINKLKNADSKIKDLENKINQIQTRLSELDPESPEKKKLSREEIQLTIKKDAAVKDRTLIEQKTLSIHSKLTDKSMQLEKEIDSFSAFSNTASAEQLSTQQKSLTGLASVTQLMATFIQLVGKNNEESLKNDLALFQSLQESRKTEMERKSDEYAAEVRKAEELNRVMGCVGKILGALLTIVSVVAAAFSGGASLALAAVGLALMVTDAIVQAATGNSFMEQALNPIMKAVIEPLIKLLSDAFTKMLEGLGVDSKKAKMIGSILGAIAGALVLVAAVVLVATVGKQAAAKLAENIGKIIGKTLTDLIPKFLKNFSSQLDDLITNAVARLNKFLGAAGDEVISKQIISTHLNQAVLLGESVNSATQAGGSVASAVFQNSASTNLADLTLSKYQVEQLSKYISEAIEKFGQLQEVIADLLASMSNSQANRTDVAKAILQQTTA [N61A]	decreasing interaction

Variants of: B1
Settings: with ipgc_shifl ipgC

Variant	effect of a mutation on the interaction
MHNVSTTTTGFPLAKILTSTELGDNTIQAANDAANKLFSLTIADLTANQNINTTNAHSTSNILIPEAKAPKSLNASSQLTLLIGNLIQILGEKSLTALTNKITAWKSQQQARQQKNLEFSDKINTLLSETEGLTRDYEKQINKLKNADSKIKDLENKINQIQTRLSELDPESPEKKKLSREEIQLTIKKDAAVKDRTLIEQKTLSIHSKLTDKSMQLEKEIDSFSAFSNTASAEQLSTQQKSLTGLASVTQLMATFIQLVGKNNEESLKNDLALFQSLQESRKTEMERKSDEYAAEVRKAEELNRVMGCVGKILGALLTIVSVVAAAFSGGASLALAAVGLALMVTDAIVQAATGNSFMEQALNPIMKAVIEPLIKLLSDAFTKMLEGLGVDSKKAKMIGSILGAIAGALVLVAAVVLVATVGKQAAAKLAENIGKIIGKTLTDLIPKFLKNFSSQLDDLITNAVARLNKFLGAAGDEVISKQIISTHLNQAVLLGESVNSATQAGGSVASAVFQNSASTNLADLTLSKYQVEQLSKYISEAIEKFGQLQEVIADLLASMSNSQANRTDVAKAILQQTTA [L67A]	decreasing interaction
